Experimental data from paper PMC3230630.

Assays:
[1] = biological target: wild type (WT) AcrB (E. coli) (UniProt P31224); test: native gel or EMSA; blue native (BN)-PAGE of freshly purified protein, 4–20% gradient gel, no DTT
[2] = biological target: CLAcrB_(P223G/V225C/A777C) (E. coli) (UniProt P31224); test: as above
[3] = biological target: CLAcrB_(P223G/V225C/A777C) (E. coli) (UniProt P31224); test: cross-linking; inter-subunit disulfide trapping (C225–C777) in vivo: membrane vesicles from BW25113ΔacrB extracted in the presence of IAM, SDS-PAGE without DTT, Western blot with anti-AcrB

wild type (WT) AcrB (from UniProt P31224 1-1049) (natural protein)
stoichiometry N [1]: 3

CLAcrB_(P223G/V225C/A777C) (from UniProt P31224 1-1049) (natural protein)
stoichiometry N [2]: 3 | stoichiometry N [3]: 3
